Data: patent US7179464 (Kyowa Kirin, dated 2007)

T1: human IL-5R α chain expressed on cells (human, UniProt Q01344 21-420)
T1 construct: whole, on cells; also called hIL-5R α; CTLL-2(h5R)
T1 sequence (looked up): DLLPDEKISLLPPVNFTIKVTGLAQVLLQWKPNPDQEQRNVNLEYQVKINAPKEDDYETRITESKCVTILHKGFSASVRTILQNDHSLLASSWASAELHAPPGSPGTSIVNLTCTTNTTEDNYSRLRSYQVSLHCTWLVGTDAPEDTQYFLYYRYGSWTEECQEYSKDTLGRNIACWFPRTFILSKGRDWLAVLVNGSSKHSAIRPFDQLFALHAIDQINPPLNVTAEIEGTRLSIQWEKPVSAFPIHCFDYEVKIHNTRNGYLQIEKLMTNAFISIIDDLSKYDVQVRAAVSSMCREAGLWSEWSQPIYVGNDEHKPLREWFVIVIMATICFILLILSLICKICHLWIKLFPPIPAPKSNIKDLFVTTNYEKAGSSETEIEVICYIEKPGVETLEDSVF


Experiments:
[1] = target: T1, human IL-5R α chain expressed on cells; experiment: flow cytometry on CTLL-2(h5R) cells, antibody at 10 µg/ml
Protocol: (§1) Briefly, 5 ×10^5 cells obtained by transfecting a human IL-5R gene into CTLL-2 cells (ATCC TIB 214) [hereinafter referred to as "CTLL-2(h5R)"] [J. Exp. Med., 177, 1523 (1993)] or 5 ×10^5 CTLL-2 cells as a control were suspended in an immunocyte staining buffer (PBS containing 1% BSA, 0.02% EDTA and 0.05% sodium azide) and dispensed into a round bottom 96-well plate (100 μl/well). After centrifuging at 350×g for 1 minute at 4° C., the supernatant was discarded. Then, 50 μl of the immunocyte staining buffer containing 10 μg/ml of an hIL-5R α antibody were added to each well and reacted at 4° C. for 30 minutes. After the reaction, the immunocyte staining buffer was added (200 μl/well) and centrifuged at 350×g for 1 minute at 4° C. and then the supernatant was removed to wash the cells. The washing operation was further repeated twice. Thereafter, 50 μl of the immunocyte staining buffer containing FITC-labeled anti-mouse immunoglobulin antibody or FITC-labeled anti-human immunoglobulin antibody (both manufactured by Wako Pure Chemical Industries, Ltd.) diluted 30 folds with a staining buffer were added to each well and reacted at 4° C. for 30 minutes. After the reaction, a similar washing operation was repeated three times. Then, the cells were analyzed with a flow cytometer (Coulter).

[2] = target: T1, human IL-5R α chain expressed on cells; experiment: immunocyte staining, flow cytometry on CTLL-2(h5R) cells
Protocol: as §1

| binding result [1] | binding result [2] | Binder |
| --- | --- | --- |
| binds |  | anti-human IL-5R α chain human CDR-grafted antibody KM8399 (antibody, human IgG1, V domains shown, also called HV.3LV.0; pKANTEX1259HV3LV0) VH: EVQLVQSGAEVKKPGASVKVSCKASGYTFTSYVIHWVRQRPGQGLAWMGYINPYNDGTKYNERFKGKVTITSDRSTSTVYMELSSLRSEDTAVYLCGREGIRYYGLLGDYWGQGTLVTVSS VL: DIQMTQSPSSLSASVGDRVTITCGTSEDIINYLNWYQQKPGKAPKLLIYHTSRLQSGVPSRFSGSGSGTDFTLTISSLQPEDFATYYCQQGYTLPYTFGQGTKVEIK |
| binds |  | anti-human IL-5R α chain human CDR-grafted antibody KM9399 of human antibody IgG4 subclass (antibody, V domains shown, Same V regions as KM8399 (built from pKANTEX1259HV3LV0); also called pKANTEX1259HV3LV0γ4; transformant KM9399 (FERM BP-5647)) VH: EVQLVQSGAEVKKPGASVKVSCKASGYTFTSYVIHWVRQRPGQGLAWMGYINPYNDGTKYNERFKGKVTITSDRSTSTVYMELSSLRSEDTAVYLCGREGIRYYGLLGDYWGQGTLVTVSS VL: DIQMTQSPSSLSASVGDRVTITCGTSEDIINYLNWYQQKPGKAPKLLIYHTSRLQSGVPSRFSGSGSGTDFTLTISSLQPEDFATYYCQQGYTLPYTFGQGTKVEIK |
|  | binds | anti-human IL-5R α monoclonal antibody KM1257 (antibody, V domains shown, Mouse IgG1; also called hybridoma KM1257 (FERM BP-5133)) VH: EVQLVESGGDLVKPGGSLKLSCAASGFTFSDYGMAWIRQISDKRPEWVAAISSGGSYIHFPDSLKGRFTVSRDNAKNTLYLEMSGLKSEDTAMYYCARRGFYGNYRAMDYWGQGTSVTVSS VL: not shown |
